Measured values from US20220119534A1 (DRAGONFLY THERAPEUTICS, published 2022).

Tests used:
[1] = biological target: T1, Human CLEC12A expressed on cells (Ba/F3-hCLEC12A, PL21, HL60) (human, UniProt Q5QGZ9 1-265); test: cell-based or functional assay
T1 sequence: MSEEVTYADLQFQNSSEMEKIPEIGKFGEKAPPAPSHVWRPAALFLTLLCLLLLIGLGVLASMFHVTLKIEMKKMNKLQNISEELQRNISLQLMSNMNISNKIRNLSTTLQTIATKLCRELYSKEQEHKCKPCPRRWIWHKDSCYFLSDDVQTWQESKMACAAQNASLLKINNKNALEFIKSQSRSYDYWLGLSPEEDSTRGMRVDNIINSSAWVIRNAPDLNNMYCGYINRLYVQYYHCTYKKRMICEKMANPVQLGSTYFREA

[2] = biological target: T2, Human CLEC12A-His (recombinant, K244 WT) (human, UniProt Q5QGZ9 65-265); test: SPR 37C, two-state fit (ka1), average
T2 construct: Made in house (Dragonfly Tx); also called hCLEC12A; hCLEC12A-His; not shown: His tag
T2 sequence: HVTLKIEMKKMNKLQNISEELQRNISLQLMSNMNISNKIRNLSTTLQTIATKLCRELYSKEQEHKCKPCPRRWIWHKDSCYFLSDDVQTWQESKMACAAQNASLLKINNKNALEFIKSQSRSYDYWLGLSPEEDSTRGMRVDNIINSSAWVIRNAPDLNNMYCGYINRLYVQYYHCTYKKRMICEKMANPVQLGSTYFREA

[3] = biological target: T2, Human CLEC12A-His (recombinant, K244 WT); test: SPR, two-state fit
Protocol: (§1) Briefly, human Fc specific antibodies were covalently immobilized at a density ˜8000-10000 resonance units (RU) on carboxy methyl dextran matrix of a CM5 biosensor chip via amine-coupling chemistry to create an anti-hFc IgG chip. […] Association was monitored for 300 seconds and dissociation was monitored for 600 seconds. Surfaces were regenerated between cycles with three pulses of 10 mM glycine-HCl, pH 1.7 injected for 20 seconds at 100 μl/min. HBS-EP+ (1×) with 0.1 mg/ml BSA was used as running buffer throughout the experiment. Experiments were performed at physiological temperature of 37° C. To obtain kinetic rate constants and overall binding affinity, double-referenced data were fit to a two-state kinetic model using Biacore 8K Insight Evaluation software (Cytiva).

Human CLEC12A-K244Q-His = biological target: T3, Human CLEC12A-K244Q-His (human, UniProt Q5QGZ9 65-265); test: SPR, two-state fit
T3 construct: also called hCLEC12A (Q244); CLEC12A (Q244); not shown: His tag
T3 chain: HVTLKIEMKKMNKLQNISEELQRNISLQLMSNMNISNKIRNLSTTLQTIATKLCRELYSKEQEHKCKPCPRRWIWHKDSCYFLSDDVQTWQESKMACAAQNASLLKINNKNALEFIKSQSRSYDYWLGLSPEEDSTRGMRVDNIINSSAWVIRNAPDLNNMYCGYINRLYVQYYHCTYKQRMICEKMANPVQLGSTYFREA

[4] = biological target: T2, Human CLEC12A-His (recombinant, K244 WT); test: SPR, two-state fit; after 4 wks 40C in CST pH 7.0
Protocol: as §1

[5] = biological target: T2, Human CLEC12A-His (recombinant, K244 WT); test: SPR, two-state fit (ka1); control sample
Protocol: as §1

- kon [2]: 1.04e+07 M⁻¹ s⁻¹
- Kd [3]: 0.6 nM
- Kd (Human CLEC12A-K244Q-His): 1.17 nM
- Kd [4]: 1 nM
- kon [5]: 1.01e+07 M⁻¹ s⁻¹
B1: AB0089 TriNKET (bispecific antibody, human IgG1, kappa)
chain: QLQLQESGPGLVKPSETLSLTCTVSGFSLTNYGLHWIRQPPGKCLEWIGVIWVGGATDYNPSLKSRVTISVDTSKNQFSLKLSSVQAADTAVYYCAKGDYGDTLDYWGQGTLVTVSSGGGGSGGGGSGGGGSGGGGSDIQMTQSPSSLSASVGDRVTITCHASQNINFWLSWYQQKPGKAPKLLIYEASNLHTGVPSRFSGSGSGTDFTLTISSLQPEDFATYYCQQSHSYPLTFGCGTKLEIKGSDKTHTCPPCPAPELLGGPSVFLFPPKPKDTLMISRTPEVTCVVVDVSHEDPEVKFNWYVDGVEVHNAKTKPREEQYNSTYRVVSVLTVLHQDWLNGKEYKCKVSNKALPAPIEKTISKAKGQPREPRVYTLPPCRDELTKNQVSLTCLVKGFYPSDIAVEWESNGQPENNYKTTPPVLVSDGSFTLYSKLTVDKSRWQQGNVFSCSVMHEALHNHYTQKSLSLSPG
heavy: EVQLVESGGGLVKPGGSLRLSCAASGFTFSSYSMNWVRQAPGKGLEWVSSISSSSSYIYYADSVKGRFTISRDNAKNSLYLQMNSLRAEDTAVYYCARGAPIGAAAGWFDPWGQGTLVTVSSASTKGPSVFPLAPSSKSTSGGTAALGCLVKDYFPEPVTVSWNSGALTSGVHTFPAVLQSSGLYSLSSVVTVPSSSLGTQTYICNVNHKPSNTKVDKKVEPKSCDKTHTCPPCPAPELLGGPSVFLFPPKPKDTLMISRTPEVTCVVVDVSHEDPEVKFNWYVDGVEVHNAKTKPREEQYNSTYRVVSVLTVLHQDWLNGKEYKCKVSNKALPAPIEKTISKAKGQPREPQVCTLPPSRDELTENQVSLTCLVKGFYPSDIAVEWESNGQPENNYKTTPPVLDSDGSFFLYSWLTVDKSRWQQGNVFSCSVMHEALHNHYTQKSLSLSPG
light: DIQMTQSPSSVSASVGDRVTITCRASQGISSWLAWYQQKPGKAPKLLIYAASSLQSGVPSRFSGSGSGTDFTLTISSLQPEDFATYYCQQGVSFPRTFGGGTKVEIKRTVAAPSVFIFPPSDEQLKSGTASVVCLLNNFYPREAKVQWKVDNALQSGNSQESVTEQDSKDSTYSLSSTLTLSKADYEKHKVYACEVTHQGLSSPVTKSFNRGEC
notes: F3' format heterodimer of three chains; human IgG1 Fc with EW-RVT and Y349C/S354C mutations; also called AB0089 Lot AB0089-002; CLEC12A TriNKET AB0089
- EC50, KHYG1-CD16aV cytotoxicity assay; after 4 wks 40C in CST pH 7.0 [1]: 0.16 nM
- EC50, KHYG1-CD16aV cytotoxicity assay; control sample [1]: 0.13 nM
